Measured values reported in patent US20240092919A1.

How the values were obtained:
[1] = molecular target: Cynomolgus T cell receptor on cynomolgus primary T cells (cynomolgus monkey); test: cell-based or functional assay
[2] = molecular target: Human T cell receptor on human primary T cells (human) (UniProt P01848); test: cell-based or functional assay
Sequence of Human T cell receptor on human primary T cells (human) (P01848 whole entry, chain 1 of 2): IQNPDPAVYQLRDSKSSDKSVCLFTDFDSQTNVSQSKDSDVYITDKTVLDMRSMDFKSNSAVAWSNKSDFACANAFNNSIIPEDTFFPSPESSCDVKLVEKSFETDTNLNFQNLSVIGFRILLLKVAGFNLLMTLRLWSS
Sequence of Human T cell receptor on human primary T cells (human) (P01850 whole entry, chain 2 of 2, further chain): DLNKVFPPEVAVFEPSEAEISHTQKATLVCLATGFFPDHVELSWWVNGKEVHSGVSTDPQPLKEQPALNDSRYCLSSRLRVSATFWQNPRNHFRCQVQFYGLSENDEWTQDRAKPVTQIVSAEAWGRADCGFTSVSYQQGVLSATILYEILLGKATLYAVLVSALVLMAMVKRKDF

Binder | % lysis, KG-1a, Cynomolgus T cell mediated killing [1] | % lysis, MOLM-13, Cynomolgus T cell mediated killing [1] | Average EC50 (M), KG-1a, Cynomolgus T cell mediated killing [1] | Average EC50 (M), MOLM-13, Cynomolgus T cell mediated killing [1] | % lysis, KG-1a, Human T cell mediated killing [2] | % lysis, MOLM-13, Human T cell mediated killing [2] | Average EC50 (M), KG-1a, Human T cell mediated killing [2] | Average EC50 (M), MOLM-13, Human T cell mediated killing [2] | IC50 (M), xCELLigence cell killing, Human T cell mediated killing, E:T 15:1 [2]
T017000675 (bispecific antibody) DVQLVESGGGLVQAGGPLRLSCAASGRTFSSYVMGWFRQAPGKEREFVAAIYWSNGKTQYTDSVKGRFTISGDNAKNTVYLQMNSLNPEDTAVYYCVADKDETGFRTLPIAYDYWGQGTLVTVSSGGGGSGGGGSGGGGSGGGGSGGGGSGGGGSGGGGSEVQLVESGGGLVQAGGSLRLSCAASGITSKINDMGWYRQTPGNYREWVASITATGTTNYRDSVKGRFTISRDNAKSTVYLQMNSLKPEDTTVYYCNTFPPISNFWGQGTLVTVSSGGGGSGGGGSGGGGSGGGGSGGGGSGGGGSGGGGSEVQLVESGGGVVQPGGSLRLSCVASGYVHKINFYGWYRQAPGKEREKVAHISIGDQTDYADSAKGRFTISRDESKNTVYLQMNSLRPEDTALYYCRALSRIWPYDYWGQGTLVTVSSA | 26% | 31% | 2.6e-11 M | 6.9e-11 M | 46% | 23% | 9.2e-11 M | 3.4e-11 M | 5e-11 M
T017000677 (bispecific antibody) DVQLVESGGGLVQAGGPLRLSCAASGRTFSSYVMGWFRQAPGKEREFVAAIYWSNGKTQYTDSVKGRFTISGDNAKNTVYLQMNSLNPEDTAVYYCVADKDETGFRTLPIAYDYWGQGTLVTVSSGGGGSGGGGSGGGGSGGGGSGGGGSGGGGSGGGGSEVQLVESGGGVVQPGGSLRLSCVASGYVHKINFYGWYRQAPGKEREKVAHISIGDQTDYADSAKGRFTISRDESKNTVYLQMNSLRPEDTALYYCRALSRIWPYDYWGQGTLVTVSSGGGGSGGGGSGGGGSGGGGSGGGGSGGGGSGGGGSEVQLVESGGGLVQAGGSLRLSCAASGITSKINDMGWYRQTPGNYREWVASITATGTTNYRDSVKGRFTISRDNAKSTVYLQMNSLKPEDTTVYYCNTFPPISNFWGQGTLVTVSSA | – | 54% | – | 5.1e-12 M | 65% | 20% | 1.5e-11 M | 1.2e-11 M | –
T017000671 (bispecific antibody) DVQLVESGGGLVQAGGSLRLSCAASGITSKINDMGWYRQTPGNYREWVASITATGTTNYRDSVKGRFTISRDNAKSTVYLQMNSLKPEDTTVYYCNTFPPISNFWGQGTLVTVSSGGGGSGGGGSGGGGSGGGGSGGGGSGGGGSGGGGSEVQLVESGGGVVQPGGSLRLSCVASGYVHKINFYGWYRQAPGKEREKVAHISIGDQTDYADSAKGRFTISRDESKNTVYLQMNSLRPEDTALYYCRALSRIWPYDYWGQGTLVTVSSGGGGSGGGGSGGGGSGGGGSGGGGSGGGGSGGGGSEVQLVESGGGLVQAGGPLRLSCAASGRTFSSYVMGWFRQAPGKEREFVAAIYWSNGKTQYTDSVKGRFTISGDNAKNTVYLQMNSLNPEDTAVYYCVADKDETGFRTLPIAYDYWGQGTLVTVSSA | – | 46% | – | 2.1e-11 M | 21% | 14% | 1.5e-10 M | 1.5e-10 M | –
T017000676 (bispecific antibody) DVQLVESGGGLVQAGGSLRLSCAASGITSKINDMGWYRQTPGNYREWVASITATGTTNYRDSVKGRFTISRDNAKSTVYLQMNSLKPEDTTVYYCNTFPPISNFWGQGTLVTVSSGGGGSGGGGSGGGGSGGGGSGGGGSGGGGSGGGGSEVQLVESGGGLVQAGGPLRLSCAASGRTFSSYVMGWFRQAPGKEREFVAAIYWSNGKTQYTDSVKGRFTISGDNAKNTVYLQMNSLNPEDTAVYYCVADKDETGFRTLPIAYDYWGQGTLVTVSSGGGGSGGGGSGGGGSGGGGSGGGGSGGGGSGGGGSEVQLVESGGGVVQPGGSLRLSCVASGYVHKINFYGWYRQAPGKEREKVAHISIGDQTDYADSAKGRFTISRDESKNTVYLQMNSLRPEDTALYYCRALSRIWPYDYWGQGTLVTVSSA | 28% | 26% | 1.4e-11 M | 2e-11 M | 41% | 25% | 8.2e-11 M | 2.3e-11 M | 1.1e-10 M
